Measured values from PMC10247727, “Stabilization of pre-existing neurotensin receptor conformational states by β-arrestin-1 and the biased allosteric modulator ML314” (Nature Communications, 2023).

Molecular target: T1, enNTS1ΔM4 (minimal methionine variant of the thermostabilized rat neurotensin receptor 1 variant enNTS1) (rat, N262^5.63R (stands in the printed letters) | K263^5.64R (stands in the printed …))
T1 construct: residues left before the receptor after HRV 3C cleavage (so in the source); enNTS1ΔM4: rat neurotensin receptor 1 thermostabilized by directed evolution (enNTS1), four of the ten methionines removed; linker, C-terminal Avi-tag and the rest of the HRV 3C site, as printed (the Avi-tag is named under tags too); In DDM micelles; 13CεH3-methionine labelled or unlabelled; also called …
T1 chain: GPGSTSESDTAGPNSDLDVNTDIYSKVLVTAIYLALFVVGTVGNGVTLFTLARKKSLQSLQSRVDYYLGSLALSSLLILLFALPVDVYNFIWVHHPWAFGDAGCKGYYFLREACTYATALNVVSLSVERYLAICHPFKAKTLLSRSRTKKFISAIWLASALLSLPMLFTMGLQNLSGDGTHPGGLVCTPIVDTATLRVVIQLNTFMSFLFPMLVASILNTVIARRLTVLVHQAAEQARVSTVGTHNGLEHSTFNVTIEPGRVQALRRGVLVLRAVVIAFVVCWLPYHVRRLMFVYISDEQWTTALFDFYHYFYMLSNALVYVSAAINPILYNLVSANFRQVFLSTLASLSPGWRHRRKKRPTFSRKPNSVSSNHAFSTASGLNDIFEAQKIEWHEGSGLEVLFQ
Assay: NMR (1H-13C HMQC spectra); 66 μM [13CεH3-methionine]-enNTS1ΔM4 with 500 μM ML314 (no NT8-13), 130 μM PIP2 and 2.3x molar equivalents βArr1-3A, 298 K
Details: both partners purified

B1: βArr1-3A (pre-activated cysteine-free human β-arrestin-1, I386A/V387A/F388A), tags removed (natural protein)
chain: GPSGDKGTRVFKKASPNGKLTVYLGKRDFVDHIDLVDPVDGVVLVDPEYLKERRVYVTLTVAFRYGREDLDVLGLTFRKDLFVANVQSFPPAPEDKKPLTRLQERLIKKLGEHAYPFTFEIPPNLPSSVTLQPGPEDTGKALGVDYEVKAFVAENLEEKIHKRNSVRLVIRKVQYAPERPGPQPTAETTRQFLMSDKPLHLEASLDKEIYYHGEPISVNVHVTNNTNKTVKKIKISVRQYADIVLFNTAQYKVPVAMEEADDTVAPSSTFSKVYTLTPFLANNREKRGLALDGKLKHEDTNLASSTLLREGANREILGIIVSYKVKVKLVVSRGGLLGDLASSDVAVELPFTLMHPKPKEEPPHREVPENETPVDTNLIELDTNDDDAAAEDFARQRLKGMKDDKEEEEDGTGSPQLNNR
notes: residues left after HRV 3C cleavage (so in the source); human β-arrestin-1, cysteine-free, 3A mutant; Used in the NMR experiments, unlabelled or [U-15N,13C,2H]-labelled; also called hβArr1-3A; βArr-3A; source: E. coli BL21(DE3), purified (Ni-NTA, HRV 3C cleavage, HiTrap Q, SEC); not shown: His6, N-terminal, cleaved; Protein C tag, N-terminal, cleaved
B1: binds.
